Source: US20180128830A1, “DETECTION OF HUMAN CYTOMEGALOVIRUS IN BREAST CANCER” (priority 2015, published 2018)

B1: cmvIL-10 (protein)
chain: ATTTTIKNTKPQCRPEDYATRLQDLRVTFHRVKPTLQREDDYSVWLDGTVVKGCWGCSVMDWLLRRYLEIVFPAGDHVYPGLKTELHSMRSTLESIYKDMRQCPLLGCGDKSVISRLSQEAERKSDNGTRKGLSELDTLFSRLEEYLHSRK

Key:
[1] = test system: MDA-MB-231 cells; assay: Standard cell counts (hemacytometer); format: cell-based, human; conditions: 100 ng/ml, 6-well dishes
Experimental: (§1) Cells were seeded into 96-well dishes at a density of 1×10^4 cell per well in complete medium with varying doses of cmvIL-10, and then cell viability measured at the indicated time points using the Cell Titer Glo Assay kit according to manufacturer's instructions (Promega). DNA synthesis was measured in cells prepared in the same way using the BrdU Cell Proliferation ELISA Kit (Roche, Basel, Switzerland). For experiments using inhibitors, cells were cultivated in 96-well dishes as above with a final concentration of 10 μM inhibitor and BrdU incorporation evaluated after 72 hrs. For cell counts, cells were seeded into 6-well plates at a density of 2×10^5 cells per well, harvested via trypsinization, and counted using a hemacytometer at the indicated time points. The TACS Annexin V-FITC Detection Kit (Trevigen, Gaithersburg, Md.) was used to stain cells harvested from 70% confluent T75 flasks that had been treated with 100 μM etoposide for 48 hrs in the presence or absence of 100 ng/ml cmvIL-10. Cells were then analyzed via flow cytometry to detect fluorescence. For viability assays, Cell Titer Glo reagent was utilized to quantify cells that had been seeded into 96-well dishes at a density of 1×10^4 cell per well in complete medium with varying doses of etoposide in the presence or absence of 100 ng/ml cmvIL-10 as indicated

[2] = test system: Stat3; assay: Western blot for Stat3 phosphorylation in MDA-MB-231 cells; format: cell-based, human; conditions: 100 ng/ml, 15 min
Experimental: For western blotting, cells were treated with 100 ng/ml cmvIL-10, hIL-10, IFNγ or PBS for 15 min, then harvested into cell lysis buffer (150 mM NaCl, 20 mM HEPES, 0.5% Triton-X-100, 1 mM NaOV4, 1 mM EDTA, 0.1% NaN3). Lysates were clarified, proteins were separated via SDS-PAGE, and then transferred to a nitrocellulose membrane. Then membrane was incubated in blocking solution (5% milk+1×TBS-T) for 1 hr, then probed with primary antibody at a 1:1000 dilution (total Stat3 or pStat3, total Stat1 or pStat1) in blocking solution overnight at 4° C. After washing, the membranes were incubated with a 1:2000 dilution of appropriate AP-conjugated secondary antibody and bands were detected using Western Blue stabilized AP substrate (Promega, Madison, Wis.). For analysis of secreted proteins, supernatants were collected at various time points, analyzed by SDS-PAGE and then immunoblotted as above for cmvIL-10, hIL-10, or serpin E1/PAI.

[3] = molecular target: T1, CXCR4 (Homo sapiens, UniProt P61073); assay: Calcium flux assay in HEK293 cells; format: cell-based
T1 construct: HEK293 cells, which endogenously express both CXCR4 and IL-10R; endogenous in cells; host or cells: HEK293
T1 sequence (P61073 whole entry): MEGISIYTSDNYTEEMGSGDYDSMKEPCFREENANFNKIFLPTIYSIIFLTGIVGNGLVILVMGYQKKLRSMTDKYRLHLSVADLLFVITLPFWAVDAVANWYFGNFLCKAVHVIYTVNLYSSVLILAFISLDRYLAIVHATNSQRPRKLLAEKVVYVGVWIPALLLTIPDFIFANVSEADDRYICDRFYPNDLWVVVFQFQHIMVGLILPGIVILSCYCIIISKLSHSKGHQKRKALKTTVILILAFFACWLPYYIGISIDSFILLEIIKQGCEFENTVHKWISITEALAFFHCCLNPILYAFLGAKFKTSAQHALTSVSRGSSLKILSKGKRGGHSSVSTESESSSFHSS
Experimental: Calcium flux assays were performed as described (Arnolds K L, et al. Virology 439:122-131.). Briefly, cells were resuspended in 2 mls calcium assay buffer (RPMI with 25 mM of HEPES) at a density of 5×10^5 cells/ml per sample. Each sample was labeled with 2 μl of Fluo-4AM (Invitrogen, Grand Island, N.Y.), wrapped in foil, at 37° C. for 30 minutes with agitation at 10-minute intervals. Following incubation, each sample was pelleted, resuspended in calcium assay buffer, and transferred into an eppendorf tube for flow cytometry using the BD C6 Accuri. Fluorescence intensity of each sample was measured for 20 seconds to establish baseline, then stimulus (CXCL12, in the presence or absence of cmvIL-10, as indicated) was added via micropipetting directly into the sample while fluorescence intensity was measured. Kinetic fluorescence intensity analysis was performed with FlowJo software v9.4.9 (FlowJo, Ashland, Oreg.). Purified recombinant cmvIL-10 was purchased from R&D Systems (Minneapolis, Minn.) and purified recombinant CXCL12 was purchased from Peprotech (Rocky Hill, N.J.). For each calcium flux assay, ionomycin (Sigma) was a positive control for Fluo-4AM loading and PBS served as a negative control for the addition of stimulus.

[4] = test system: MMP-3; assay: MMP-3 western blotting and zymography; format: cell-based, human; conditions: over time
Experimental: Confluent T-75 flasks of MDA-MB-231 cells were treated with 10 ng/mL cmvIL-10 (R&D systems) for the indicated times, then scraped and harvested into cell lysis buffer (150 mM NaCl, 20 mM HEPES, 0.5% Triton-X-100, 1.0 mM NaOV4, 1.0 mM EDTA, 0.1% NaN3) containing 1× protease inhibitors (Calbiochem). Cell lysates were clarified via centrifugation, heated at 70° C. for 10 min in reducing buffer, and the proteins separated on a 4-12% Tris-Base SDS-PAGE gel (Life Technologies, Grand Island, N.Y.). After transfer to nitrocellulose, the membrane was incubated in blocking solution (5% milk+TBS) for 1 hr at room and then probed with primary antibody: 1:1000 dilution for MMP-3 or MTSS-1 antibodies (Santa Cruz), or MAPK antiserum (Cell Signaling Tech, Danvers, Mass.), in blocking solution overnight, oscillating on a platform rocker at 4.0° C. After three washes, the membranes were incubated with a 1:2000 dilution of appropriate AP-conjugated secondary antibody on a platform rocker at room temperature for 1 hr. Protein bands were detected using western blue stabilized AP substrate (Promega, Madison, Wis.). For zymography, cell lysates were denatured in SDS buffer under non-reducing conditions without heat, and run on a 4-16% Zymogram gel using Tris-Glycine SDS running buffer according to manufacturer's instructions. […]

[5] = test system: MDA-MB-231 cells; assay: Cell proliferation, Cell Titer Glo; format: cell-based, human
Experimental: as §1

Molecule | cell numbers [1] | 83 kD band of phosphorylated Stat3 (pStat3) [2] | peak fluorescence intensity of calcium mobilization ([3]; CXCL12 0.1 μg/ml plus cmvIL-10 0.1 μg/ml) | calcium mobilization ([3]; cmvIL-10 alone) | amount of active MMP-3 enzyme (zymography, casein digestion) [4] | total MMP-3 protein (western blot) [4] | cell growth (cell viability, RLU) ([5]; 100 ng/ml, 72 hrs) | cell growth (cell viability, RLU) ([5]; increasing doses of cmvIL-10)
hIL-10: purified recombinant human interleukin-10 from R&D Systems | higher cell numbers than control cultures | detected | – | – | – | – | – | –
B1 | higher cell numbers than control cultures | detected | significantly higher | did not induce calcium mobilization | also increased | increase in total MMP-3 protein | significantly higher cell growth than control cultures | greater growth than control cells
